These results are taken from the DeepSol protein solubility set.

The series is described as follows: soluble on expression in E. coli; label from the status in PepcDB or PDB records.
For the sequence “MATSFRYGHGGSYKSACAVWFDLLPALREGRICITNIHGMQPLEVIEQRLGEKFPDTARLIRISSRNPEGFELWKYFFCWAPIGAFILIDECQQIFSVNAGFKMANIHKRPFTDFEPHLPEGFSELFHSRWLTIDTSSLDNGEIDDCQRTRFDEQGRIIYPENFNNAFMEHRHYNWDIVLLTPDFAQIPKELKGVAELAKQHKGKDGIFFSNRKPRILEHDPTRTVTKPSKDDVVYNLKVPLDVHLLYASTVTGQ”, the “soluble on expression in E. coli” value is on record as “not soluble”.

“MSLDALTTLPIKKHTALLNRFPETRFVTQLAKKRASWIVFGHYLTPAQFEDMDFFTNRFNAILDMWKVGRYEVALMDGELTSEHETILKALELDYARIQDVPDLTKPGLIVLDMDSTAIQIECIDEIAKLAGVGEEVAEVTERAMQGELDFEQSLRLRVSKLKDAPEQILSQVRETLPLMPELPELVATLHAFGWKVAIASGGFTYFSDYLKEQLSLDYAQSNTLEIVSGKLTGQVLGEVVSAQTKADILLTLAQQYDVEIHNTVAVGDGANDLVMMAAAGLGVAYHAKPKVEAKAQTAVRFAGLGGVVCILSAALVAQQKLSWKSKEGHHHHHH”: the “soluble on expression in E. coli” value was “soluble”.

On to “MSSGVMVDPDVQTSFQKLSEGRKEYRYIIFKIDENKVIVEAAVTQDQLGITGDDYDDSSKAAFDKFVEDVKSRTDNLTDCRYAVFDFKFTCSRVGAGTSKMDKIIFLQICPDGASIKKKMVYASSAAAIKTSLGTGKILQFQVSDESEMSHKELLNKLGEKYGDH”, for which the “soluble on expression in E. coli” value was “not soluble”.

Consider “MSLSVPRSGLSVQMAQPARPLRADAARNRARILGVAYEAFATEGLSVPIDEIARRAGVGAGTVYRHFPTKEALCAAVIGDRMPHLVDDGYVLLKSAGPGEALFTYLRSLVLHWGATDRGLVDALAGAGGIDILGVAPDAEDAFLTILSDLLYAAQYAGTARTDVGVREVKSILVGCQAMEAYNSALAERVTDVVVDGLRAAREGHHHHHH”, for which the “soluble on expression in E. coli” value is given as “soluble”.

With “MVTSTRARFGQFVHRRRRLLNLTQDEVTAAGGPSDAAQTRAENGTGPDPSIETLRKLDVALRWAPGSAARTLDGGHPTPLEALDGEDRSPAARPLTLGPSEIPLDLDTIIEILGPHTQITKLSAAHPEVPGLAEAAGELSRVVSKITGAYVTRLLEVNGGPTGPRQPLVEFAFGHLLEEPTTVTDPRELEEARYRRFLYGRGEDLDAATRERFWRRWEDAVKLVATEDPERSGDAEVNA”, the “soluble on expression in E. coli” value is on record as “not soluble”.

For the sequence “MVERLEALFDALAELTGQRNAIDAKIVQIVAEIDRDGLWGATGARSISALVAWKTGASERNAKAIAAVAHRAEEFPRCVQGLGAGRLSLDQVGVIAEGAADGSDEHYAALASVATVSQLRKAISLEPKPEPEPKPDPRRSIRTNPGDGYTTYHITLPRLEAAKFDTALEASHEGLIARWEREQDPGDPAVPMPDLVDAFMALVETGWDREATRRPHGQHTAVAVHVDLKSKVAALHLGPLLGDDERRLLTCDATCEVWFELRGRVIGTGRATRTVNRRLRRALEHRDRCCVVPGCSATRGLHAHHLVHWEDGGLTEMANLVLLCPYHHRAHHRGLITITGPADQLTVTDDRGRLLTNQSLARTPLEHHHHHH”, the “soluble on expression in E. coli” value was “soluble”.

As for “MRLTKQTNYAVRMLMYCAANEGKLSRIPEIARAYGVSELFLFKILQPLNKAGLVETVRGRNGGVRLGKPAEKISLFDVVRVTEDSFAMAECFEDGAVECPLVDSCGLNSALRKALNAFFDVLAEYSIDDLVKARPQINFLLGIDTEMPKIAALPAA”, the “soluble on expression in E. coli” value is on record as “not soluble”.

With “MTNSSNLIDSLEVYVLNNPDEVKPHWVSHFIVPTANELLIKIKNKDGHSGFGLATSYTDIAPIIKPFSNGLQDLIIGEDPFCPEKIYEKIFKLTDTRLSSEKGWSREALIRISAALDIACWDLIGKASNIPLYKLFGGFRNKIPVYVTCAYYRDGKDEKELRDEIKKLVNIGHKSFKVKVGGLSIKEDVKRLEIIRDEIGDQKGLMIDVNRAWDLKTAIEGVKEFEKFKPTWIEEPVRWEDDRRTLKLLSKQTKIPLSGGESEVTIYGCRSMIEEDAIQILQFDCTMFGGFTNGKKLSALCELNHIDVAPHHDCYIHAPLVASTPAGRIVESFDDERDPLQAQLFENPHKMSEGWIHLNKKPGLGLEISDAALKKFGKLVYKNK”, the “soluble on expression in E. coli” value was “soluble”.

As to “MNKIFLTAAALVLGACGFHLKGADGISPPLTYRSWHIEGGQALQFPLETALYQASGRVDDAAGAQMTLRIDSVSQNKETYTVTRAAVINEYLLILTVEAQVLKRGEPVGKPMTVSVRRILDYADNEILGKQEEEETLWAEMRQDVAEQIVRRLTFLKAELEHHHHHH”, the “soluble on expression in E. coli” value is “soluble”.

On to “MGSDKIHHHHHHMTTNSLLIIDFEFTMPDGKYSPQNFFPEIIEAGIVKSIDDEVVETFSSYVRPKKFPKLTKRCKSFLKITQKQVDEGMRFEDFIRKLNELDPEKNSTIITWGNMDMKVLKQNCMFNHIPFPFKGEMRDLSLEYKNFFGDRTLTGLWKAAEEYGDSGTGTHHKALDDALTAYKLFKLVEQDKQYLEKPKPPTIGERIDLTELLKRAT”, for which the “soluble on expression in E. coli” value is given as “not soluble”.

For “MGSDKIHHHHHHKETGNMPEIKKQPIASAVPDFNADSAYAYVANQVAFGPRVPNTAAHKACGDYLASELKRFGAKVYQQEAILTAYDGTKLEARNIIGSFDPENSKRVLLFAHWDSRPYSDHDPDPSKHRTPLDGADDGGSGVGALLEIARQIGQKAPGIGIDIIFFDAEDYGTPEFVTDYTPDSWCLGTQFWAKNPHVPNYTAEYGILLDMVGGKNATFFKEQQSLRAAAPIVEMVWSAARDLGYGKYFINAAGGAITDDHQYVISGRNIPSIDIINYDPESKTGFASYWHTQKDNMENIDRETLKAAGQTVLEVIYNR”, the “soluble on expression in E. coli” value is recorded as “not soluble”.

For the sequence “MGSDKIHHHHHHMGISNIKQLYSKWKSLQPLKPEDLKRWNDKFKLEFNYNSNHLEGNTLTYGQTKLLLMFGETSGNASLKDYEEMKAHNVGLEMIKQEAQDKERPLTESFIRELNRTILVQDYWKNAKTPDGQDIRMQIKVGEYKSRPNSVLTATGEVFSYASPEETPAFMTSLVDWYNLEADKGILTPVELAALLHYRYIRIHPFEDGNGRIARLLVNFVLHRYGYPMIVIHSEDKSNYLNILHQCDVEAGLTPSDGANATLNDILPFVNYLSSCLIRSLTLAIKAAKGESIEEEGDFDKKIAMLQRRYSDKAIEKSSRSVEQARSAFFELAVYVEQKISGLQKLFDRTFITNTPTWNMARKINTPNPDEPIIQSHILYTKSKEYSFVEDIIRLSKKSQVDYFKLKYDAVTFHFNHCRYAGDNTFDFPFCIYIQYLSDGCEISCDITSDSVKLSYNPDVLAEEGKEYMDTACNELLKLLEEKMNDKSPEN”, the “soluble on expression in E. coli” value is given as “not soluble”.

Take “MNEFTAVKELSEKLLEDYKTESSFFFASPTRTILAEGEFTTVKHHEIESFPELVQAVLRNAKQAGNPNPIVVGALPFDRRKEVQLIVPEYSRISERLQLDPTNHLEINRNLTFEMTPVPDHEVYMKGVKQGIEKIKDGDLKKIVLSRSLDVKSSGKIDKQKLLRELAEHNKHGYTFAVNLPKDENENSKTLIGASPELLVSRHGMQVISNPLAGSRPRSDDPVEDKRRAEELLSSPKDLHEHAVVVEAVAAALRPYCHTLYVPEKPSVIHSEAMWHLSTEVKGELKNPNTSSLELAIALHPTPAVCGTPMEEAREAIQKIEPFDREFFTGMLGWSDLNGDGEWIVTIRCAEVQENTLRLYAGAGVVAESKPEDELAETSAKFQTMLKALGLNDSSLNEK”: the “soluble on expression in E. coli” value was “not soluble”.

For “MKIDRLKTDLAKAREKAAEWQARVRDLEKQITEQENLEILQVVRSVAASPEELRGLLDMIRGAKMPMAGTARTFENMDKEEI”, the “soluble on expression in E. coli” value is on record as “not soluble”.

As to “MLETRATTAKQLVQAPEQPAPQPEVAPPTTEQPAPAPAPGTTPGTENFNTPNATPETTEPRVLVSEVLVRPQSGQLTPELETQVYNVIRTQPGRTTTRSQLQEDINAIFGTGFFSNVQASPEDTPLGVRVSFIVQPNPVLSKVEIQANPGTNVPSVLPQATADEIFRAQYGKILNLRDLQEGIKELTKRYQDQGYVLANVVGAPQVSENGVVTLQVAEGVVENISVRFRNKEGQDVNEQGQPIRGRTQDYIITREVELKPGQVFNRNTVQKDLQRVFGTGLFEDVNVSLDPGTDPTKVNVVVNVVERSLEHHHHHH”, the “soluble on expression in E. coli” value was “soluble”.

For “MGSDKIHHHHHHMCASVLSRCGVALSQIQPIRCHLCQQTPCLTQCAEHNDTLNQHAAEYVKLVLAIGHHEPLYVDAYYGPAQWQAEASMLPLPELASRCASLVNQLANAGKDLSCQFLRDRHGFLSKQLGAVAAYLKRLMGQEFSFDVESRLLYDTQAPKLNLSDFSEVLARIDSLLPGEGSLTKRFDTYRSQFIVPADRVPQVFTAAVEQARLLTKRHLALPEGEQFRVEFVKDQIWTAYNWYQGDYASLIQLNQDHPLHLDRALELASHEGYPGHHVFNLLQEHELVKGLGWWEYAIYPLYSPISFLSEGSANYGLSLLMTKEERIDFEQRVLMPMAGIAGDLQHYHEVMVTYKALANLDTLVCRQLIDGEIQADEAARLLVEFALYTPEKAAQRVRFYQANRSYVLNYHHGEASVGEYVTNQVRDNAQAWEVFAALLARPRAASGIIR”, the “soluble on expression in E. coli” value was “not soluble”.

On to “MSLSERTFNWKNKDIRAQVDVVDSKLLPTLLLRNALVLNPYVKQWLKKNIWIYQDRIVYVGHELPNRAEEIHTIDCEGKYIVPGYIEPHAHPFQIYNPQTLAEYVSQYGTTTFVNDNLFLLLQSGKKKALTILNELKKQPVQYFWWSRYDLQTEVLNEDHVLPFDVRKQWIEHPDVIQGGEMTGWPRLVDGDDLMLHCMQATKKQRKRIEGHFPGASDKTLTKMKLFGADCDHEAMTGDEVMRRLELGYYVSLRNSSIRPDVRKILQELHEKGFRYYDHFFYTTDGATPNFYKGGMTNELIRIALEEGVPAIDAYNMASFNIAKYYQMDDYLGVVGPGRLASLNILEDPLNPNPVTVLSKGTILRENGCDLKAFTKTDWHKGGLVPLELSYDMTMDDLQFSMPMGVKMRNAVIMEPYMIEIDNSMEQLSFDHDESYLTMLDRHGKWRVNTMIKGFASSVQGFVSSFTTTGDIVAIGKNKADMLLAFARMKEIGGGIVLAENGNILHEIPLALCGCASSEAYEDVLEKEQKLRDLLTERGYEFCDPIYTLLFLQSTHLPYIRITPRGIFDVMKKTVLFPSIMREGHHHHHH”, for which the “soluble on expression in E. coli” value is “not soluble”.

Take “MGERFYLYDDTVEAAVRFVSFVGERQRFDLALIETDRFYGKWLVLDLQSNRFAILGRDDLEEPGYIEHAYQLHEQDANDLRAFLEEYLS”: the “soluble on expression in E. coli” value is reported as “not soluble”.

“MKTITLRPGQMTLADLRHIYQHPVHITLDESAYVPIQQSVDCVQAILAEQRTAYGINTGFGLLASTRIATEDLENLQRSIVLSHAAGVGEANDDAIVRLIMVLKINSLARGFSGIRLEVIQALITLVNAGVYPHIPLKGSVGASGDLAPLAHMSLLLLGEGKARYQGEWLPAHTALAQAGLQPLTLAAKEGLALLNGTQVSAAYALRGLFEAEDLYAAASVFGCLTVDAALGSRSPFDARIHAVRGQRGQIDAASTYRHLLGERSEISESHKNCDKVQDPYSLRCQPQVMGACLGQIRQAAEVLAIESNAVSDNPLVFAEQGDVLSGGNFHAEPVAMAADNLALALAEVGSLSECRISLMMDKHMSQLPPFLVENGGVNSGFMIAQVTAAALTSENKGLAFPASVDSIPTSANQEDHVSMAPRAGKRLWEMAENVRNILAIEWLAACQGLDLRKGLRTSAILEPARQLLRQHVTYYDKDRFFAPDIEVASQLIAQRHMNELMPAKLLPSL”: the “soluble on expression in E. coli” value is reported as “not soluble”.

Consider “MSLKNILIIGANGFTGRRILNDLSVNPIYHVTGCSLRDDICPGKDYRFVRTDIRDENEVRKLFKECRPDIVINTSALSVPDYCETHHAEAEATNVTAVETIAHVCEQYGSRFIHLSTDFVFDGKSTRLYKEEDEAIPVNYYGVTKLKAEKIIASICSNYAIVRVVVVYGKALPGQHGNILQLVANRLRNGETIRVVSDQWRTPTFVGDISVGVEKLMFHTANGIYHICGSECLTIAEIAYRVADFLKLDRSLIEPVTTEEMKEVTPRPRFSGLSIEKAKAEIGYTPRTLEEGMEASEGHHHHHH”, for which the “soluble on expression in E. coli” value is “soluble”.
